Laboratory results taken from patent publication US20260116991A1 (HAINAN SIMCERE ZAIMING PHARMACEUTICAL, published 2026).

What was measured:
[1] = target: T1, GPC3 endogenously expressed on HepG2 cells (UniProt P51654 25-554); assay: FACS on HepG2 cells;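 further: flow cytometric binding of chimeric antibodies to cells, read as mean fluorescence intensity, EC50 obtained by curve fitting of the MFI data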
T1 construct: whole, on cells
Procedure: (§1) The desired cells were expanded to a logarithmic growth phase in a T-75 cell culture flask, the medium was removed by pipetting, and the cells were washed twice with a PBS buffer, and digested with trypsin. Then a complete medium was added to stop the digestion, and the cells were blown into a single cell suspension. After counting, the cells were centrifuged, and the cell pellet was resuspended with an FACS buffer (PBS+2% fetal bovine serum) to 2×10⁶ cells/mL. The cell resuspension solution was added to a 96-well FACS reaction plate at 50 μl/well, and a chimeric antibody sample to be tested was added at 50 μl/well for incubation at 4° C. for 1 h. […] After the plate was centrifuged and washed 3 times with a PBS buffer, 100 μl of the resulting solution was assayed and analyzed by FACS (FACS Canto™, purchased from BD Biosciences). Data analysis was performed by software (FlowJo) to obtain the mean fluorescence intensity (MFI) of the cells. Then, analysis was performed by software (GraphPad Prism8), data were fitted, and EC₅₀ values were calculated.

human GPC3-His protein [2] = target: T2, human GPC3-His protein (human, UniProt P51654 25-559); assay: ELISA, coated human GPC3, antibody 1 nM;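 further: antigen coated at 1 µg/mL on 96-well plates, antibody bound for 2 h at 37 °C, detected with HRP-labeled secondary antibody and TMB, absorbance read at 450 nm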
T2 construct: Bought protein; also called human GPC3 protein; not shown: His tag

human GPC3-His protein [3] = target: T2, human GPC3-His protein; assay: ELISA, coated human GPC3, antibody 0.01 nM;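 further: Plate-bound antigen coated at 1 µg/mL, antibody incubated 2 h at 37 °C, binding detected by HRP-conjugated secondary antibody with TMB substrate, read as absorbance at 450 nm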
Procedure: (§2) The specific method is described as follows: The antigen protein was diluted with PBS to a final concentration of 1 μg/mL, and the diluent was added to a 96-well ELISA plate at 50 μL/well. The plate was sealed with a plastic film and incubated at 4° C. overnight, washed twice with PBS the next day, and a blocking solution [PBS+2% (w/w) BSA] was added for blocking at room temperature for 2 h. […] After incubation at 37° C. for 2 h, the plate was washed 3 times with PBS. A horseradish peroxidase (HRP)-labeled secondary antibody (purchased from Merck, Cat. No. AP113P) was added for incubation at 37° C. for 1 h, and the plate was washed 5 times with PBS. A TMB substrate was added at 50 μL/well for incubation at room temperature for 10 min, then a stop solution (1.0M HCl) was added at 50 μL/well. An ELISA plate reader (Multimode Plate Reader, EnSight, purchased from Perkin Elmer) was used to read OD_{450 nm} values, with results as shown in Table 4 to Table 6, FIG. 1A, FIG. 1B, and FIG. 1C.

human GPC3-His protein [4] = target: T2, human GPC3-His protein; assay: ELISA, coated human GPC3, antibody 100 nM;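 further: antibodies bound to antigen-coated 96-well plates (1 µg/mL), 2 h at 37 °C, detected with HRP-labelled secondary antibody and TMB substrate, absorbance read at 450 nm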
Procedure: as §2

human GPC3-His protein [5] = target: T2, human GPC3-His protein; assay: ELISA, coated human GPC3, antibody 0.0001 nM
human GPC3-His protein [6] = target: T2, human GPC3-His protein; assay: ELISA, coated human GPC3, antibody 0.1 nM;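 further: antigen coated on 96-well plates at 1 µg/mL, antibody bound 2 h at 37 °C, detected with HRP-labeled secondary antibody and TMB substrate, acid-stopped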
human GPC3-His protein [7] = target: T2, human GPC3-His protein; assay: ELISA, coated human GPC3, antibody 10 nM;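 further: plate coated with antigen at 1 µg/mL, antibodies bound 2 h at 37 °C, detected via HRP-conjugated secondary antibody and TMB substrate, absorbance read after acid stop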
human GPC3-His protein [8] = target: T2, human GPC3-His protein; assay: ELISA, coated human GPC3, antibody 0.001 nM
[9] = target: T3, human GPC3 on CHO-K1-human GPC3 cells (clone CHOK1-hGPC3.2B5) (human, UniProt P51654 25-554); assay: FACS on CHOK1-hGPC3.2B5 cells;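 further: flow cytometry binding of chimeric antibodies to the cells, read out as mean fluorescence intensity, with the half-maximal concentration derived by curve fitting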
T3 construct: whole, on cells; Stably transfected CHO-K1 clone 2B5
Procedure: as §1

B1: F4.13.7 human-murine chimeric antibody (antibody, human IgG1, kappa, V domains shown)
VH: QVQLQQPGAELVKPGASVKLSCKASGYTFTNNWVHWVKQRPGQGLEWTGMIHPDSGSTIYNEKFQSKATLTVDKSSSTAYMQLSSLTSEDSAVYYCARGYYDSSSYYAMDYWGQGTSVTVSS
VL: NIQMTQTTSSLSASLGDRVTISCSASQGIFNYLNWYQQKPDGTVKLLIYYTSSLHSGVPSRFSGSGSGTDYSLTISNLEPEDIATYYCQQYSKLPWTFGGGTKLEIKR
B1 was tested, and the EC50 [1] was 0.58 nM, the “Max MFI” value [1] was 1150 MFI and the OD450 nm (human GPC3-His protein [2]) was 2.28 OD450. The OD450 nm (human GPC3-His protein [3]) was 0.3 OD450, the OD450 nm (human GPC3-His protein [4]) was 2.3 OD450 and the OD450 nm (human GPC3-His protein [5]) was 0.1 OD450. It also gave an OD450 nm (human GPC3-His protein [6]) of 1.27 OD450, an OD450 nm (human GPC3-His protein [7]) of 2.27 OD450 and an OD450 nm (human GPC3-His protein [8]) of 0.12 OD450. For the same binder, the EC50 [9] was 1.1 nM and the “Max MFI” value [9] was 1710 MFI.

B2: F2.55.11 human-murine chimeric antibody (antibody, human IgG1, kappa, V domains shown)
VH: EVKLVESGGGLVKPGGSLKLSCAASGLTFSTCTMSWVRQTPAKRLEWVATISSGGGNTYYPDSVKGRFTISRDNARNTLYLQMSSLRSEDTAMYYCVRLYYDGSPYAMDYWGQGTSVTVSS
VL: DIQMTQTTSSLSASLGDRVTISCRASQDISNHLNWYQQKPDGTVKLLIYYTSRLHSGVPSRFSGSGSGTDYSLTISNLEQEDIATYFCQQDSKPPPTFGSGTKLEIKR
B2 was tested, and the EC50 [1] was 0.66 nM, the “Max MFI” value [1] was 1630 MFI and the OD450 nm (human GPC3-His protein [2]) was 2.24 OD450. It also gave an OD450 nm (human GPC3-His protein [3]) of 0.43 OD450, an OD450 nm (human GPC3-His protein [4]) of 2.58 OD450 and an OD450 nm (human GPC3-His protein [5]) of 0.11 OD450. It also gave an OD450 nm (human GPC3-His protein [6]) of 1.57 OD450, an OD450 nm (human GPC3-His protein [7]) of 2.66 OD450 and an OD450 nm (human GPC3-His protein [8]) of 0.15 OD450. For the same binder, the EC50 [9] was 0.89 nM and the “Max MFI” value [9] was 13600 MFI.

B3: F2.39.2 human-murine chimeric antibody (antibody, human IgG1, kappa, V domains shown)
VH: QVQLQQSGAELVRPGASVKVSCKASGYTFTDYEMHWMKQTPVHGLEWIGANEPETGRSAYDQKFKGKATLTADKSSSTAYMELRSLTSEDSAVYYCTRFYSFAYWGQGTLVTVSA
VL: DVVMTQTPLSLPVSLGDQASISCRSSQGLVHNNGNTYLHWYLQKPGQSPKLLIYKVSNRFSGVPDRFSGSGSGTDFTLKISRVEAEDLGVYFCSQNTHVPPTFGGGTKLEIKR
With B3 the EC50 [1] was 0.95 nM, the “Max MFI” value [1] was 12700 MFI and the OD450 nm (human GPC3-His protein [2]) was 2.21 OD450. It also gave an OD450 nm (human GPC3-His protein [3]) of 0.34 OD450, an OD450 nm (human GPC3-His protein [4]) of 2.3 OD450 and an OD450 nm (human GPC3-His protein [5]) of 0.1 OD450. For the same binder, the OD450 nm (human GPC3-His protein [6]) was 1.33 OD450, the OD450 nm (human GPC3-His protein [7]) was 2.34 OD450 and the OD450 nm (human GPC3-His protein [8]) was 0.12 OD450. The EC50 [9] was 1 nM and the “Max MFI” value [9] was 26500 MFI.

B4: F3.54.12 human-murine chimeric antibody (antibody, human IgG1, kappa, V domains shown)
VH: QVQLQQSGAELVRPGASVKLSCKASGYTFTDYEMHWVKQTPVHGLEWIGAIDPETGNTAYIQKFKGKATLTTDKSSSTAYMELRSLTSEDSAVYYCTRFYSYSHWGQGTTLTVSS
VL: DVVMTQTPLSLPVSLGDQASISCRSSQSLVHSNGNTYLHWYLQKPGQSPKLLIYKVSNRFSGVPDRFSGSSSGTDFTLKISRVEAEDLGVYFCSQNTHVPPTFGGGTKLEIKR
With B4 the EC50 [1] was 0.83 nM, the “Max MFI” value [1] was 4460 MFI and the OD450 nm (human GPC3-His protein [2]) was 2.29 OD450. For the same binder, the OD450 nm (human GPC3-His protein [3]) was 0.48 OD450, the OD450 nm (human GPC3-His protein [4]) was 2.44 OD450 and the OD450 nm (human GPC3-His protein [5]) was 0.13 OD450. For the same binder, the OD450 nm (human GPC3-His protein [6]) was 1.58 OD450, the OD450 nm (human GPC3-His protein [7]) was 2.41 OD450 and the OD450 nm (human GPC3-His protein [8]) was 0.15 OD450. For the same binder, the EC50 [9] was 0.72 nM and the “Max MFI” value [9] was 15000 MFI.

B5: F2.92.1 human-murine chimeric antibody (antibody, human IgG1, kappa, V domains shown)
VH: QVQLQQSGAELVRPGASVKLSCKASGYIFSDYEIHWVKQTPVHGLECIGAVDPETGGTAYNQKFKGKATLTADKSSSTAYMELRSLTSEDSAVYFCTRFYSFAYWGQGTLVTVST
VL: DVVMTQTPLSLPVSLGDQGSISCRSSQSLVHSNGNTYLQWYLQKPGQSPKLLIYKVSNRFSGVPDRFSGSGSGTDFTLKISRVEAEDLGVYFCCQSTHVLPTFGGGTKLEIKR
In the case of B5, the EC50 [1] is reported as 0.92 nM, the “Max MFI” value [1] is reported as 14000 MFI and the OD450 nm (human GPC3-His protein [2]) is reported as 2.24 OD450. It also gave an OD450 nm (human GPC3-His protein [3]) of 0.32 OD450, an OD450 nm (human GPC3-His protein [4]) of 2.45 OD450 and an OD450 nm (human GPC3-His protein [5]) of 0.11 OD450. It also gave an OD450 nm (human GPC3-His protein [6]) of 1.23 OD450, an OD450 nm (human GPC3-His protein [7]) of 2.23 OD450 and an OD450 nm (human GPC3-His protein [8]) of 0.12 OD450. For the same binder, the EC50 [9] was 0.92 nM and the “Max MFI” value [9] was 29400 MFI.

B6: F2.154.1 human-murine chimeric antibody (antibody, human IgG1, kappa, V domains shown)
VH: QVQLQQSGAELVRPGASVKLSCKASGYRFTDYEMHWVKQTPVHGLEWIGTIDPETGNTAYTQKFMDKATLTADKSSSTAYMELRSLTSEDSAVYYCTRGYSFTYWGQGTLATVSA
VL: DVLMTQTPLSLPVSLGDQASISCRSSQNIVHSNGNTYLQWYLQKPGQSPKLLIFKVSNRFSGVPDRFSGSGSGTDFTLKISRVEAEDLGVYYCFQGSHVPFTFGTGTKLEIKR
In the case of B6, the EC50 [1] is reported as 0.37 nM, the “Max MFI” value [1] is reported as 5450 MFI and the OD450 nm (human GPC3-His protein [2]) is reported as 2.31 OD450. The OD450 nm (human GPC3-His protein [3]) was 0.38 OD450, the OD450 nm (human GPC3-His protein [4]) was 2.61 OD450 and the OD450 nm (human GPC3-His protein [5]) was 0.09 OD450. The OD450 nm (human GPC3-His protein [6]) was 1.57 OD450, the OD450 nm (human GPC3-His protein [7]) was 2.52 OD450 and the OD450 nm (human GPC3-His protein [8]) was 0.13 OD450. The EC50 [9] was 1.14 nM and the “Max MFI” value [9] was 26700 MFI.
